Source: publication PMC11256756

Tests used:
Experiment in all cases: potentiometry
Conditions in all cases: 298 K, stated as 40 mM (SDS), 4 mM HClO4, no buffer
[1] = target: Nterm1 (position 1, -----FIHHIF)
[2] = target: Nterm1 (position 1, -----FFHHIF)
Lys14 (position 14, …) = target: Lys14 (position 14, …)
[3] = 1:1 Zn(II) complex (Zn bound by three His imidazoles; N-terminus and Lys not coordinated)

Protein	pKa [1, 3]	pKa ([1]; metal-free peptide)	pKa [2, 3]	pKa ([2]; metal-free peptide)	pKa (Lys14 (position 14, …); 1:1 Cu(II) complex, ATCUN 4N square-planar binding (N-terminal amine, two amides, His3 imidazole))	pKa (Lys14 (position 14, …); [3])	pKa (Lys14 (position 14, …); metal-free peptide)
FIHHIFRGIVHAGRSIGRFLTG [Piscidin 3 (Morone saxatilis x Morone chrysops (hybrid striped bass))]	7.29	8.26					
FFHHIFRGIVHVGKTIHKLVTG [Piscidin 2 (Morone saxatilis x Morone chrysops (hybrid striped bass))]			8.04	8.82			
FFHHIFRGIVHVGKTIHRLVTG [Piscidin 1 (Morone saxatilis x Morone chrysops (hybrid striped bass))]			7.88	8.36	9.82	10.09	10.02
